In article PMC4442525:

What was measured:
Test in all cases: pHLA tetramer staining of transfected HEK293T cells
[1] = target: HLA-B*57:01-TW10 tetramer; conditions: parent: est. 100, read off a plot; for response: scale: relative to HLA-B*57:01-TW10 binding to KIR3DL1*001
[2] = target: HLA-B*57:01-TW10 T3N tetramer; conditions: read off a plot; for response: parent: est. 19, scale: relative to HLA-B*57:01-TW10 binding to KIR3DL1*001; for percent of parent (normalized to *001 (=100)): parent: est. 100
[3] = target: HLA-B*57:01-LF9 A8 tetramer; conditions: parent: est. 57; read off a plot
[4] = target: HLA-B*57:01-LF9 L8 tetramer; conditions: parent: est. 58; read off a plot

“FLAG-tagged KIR3DL1*001 (from UniProt P43629) P163S” was tested, and the percent of parent (normalized to *001 (=100)) [1] was 97, the response [1] was 97 and the response [2] was 9. It also gave a percent of parent (normalized to *001 (=100)) [2] of 41 and a response [3] of 45.

“FLAG-tagged KIR3DL1*001 (from UniProt P43629) G138W” was tested, and the response [4] was 23, the response [2] was 10 and the percent of parent (normalized to *001 (=100)) [2] was 44. It also gave a response [3] of 40.

Work on “FLAG-tagged KIR3DL1*001 (from UniProt P43629) L166R” yielded a percent of parent (normalized to *001 (=100)) [1] of 48, a response [1] of 48 and a response [4] of 5. The response [2] was 8, the percent of parent (normalized to *001 (=100)) [2] was 36 and the response [3] was 9.

“FLAG-tagged KIR3DL1*001 (from UniProt P43629) P199L” showed a percent of parent (normalized to *001 (=100)) [1] of 190, a response [1] of 190 and a response [3] of 70.
